According to patent publication US20210340207A1 (Merck Sharp & Dohme, published 2021):
Residue numbers refer to the chain shown, from its start. Names and notes keep the numbering of the source. Each block holds one binder with its values, some of them ahead of it.

How the values were obtained:
[1] = molecular target: T1, mouse IL-2Rαβγc (on CTLL2-STAT5 reporter cells) (mouse, UniProt P01590 22-268; P16297 27-539; P34902 23-369); test: cell-based or functional assay
T1 sequence (looked up) 1: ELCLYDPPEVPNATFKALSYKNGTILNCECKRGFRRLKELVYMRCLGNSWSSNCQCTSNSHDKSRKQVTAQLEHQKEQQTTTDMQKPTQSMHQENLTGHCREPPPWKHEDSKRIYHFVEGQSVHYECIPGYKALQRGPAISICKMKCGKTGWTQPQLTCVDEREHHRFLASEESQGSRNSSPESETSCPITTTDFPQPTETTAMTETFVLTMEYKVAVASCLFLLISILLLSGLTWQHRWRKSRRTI
T1 sequence (looked up) 2: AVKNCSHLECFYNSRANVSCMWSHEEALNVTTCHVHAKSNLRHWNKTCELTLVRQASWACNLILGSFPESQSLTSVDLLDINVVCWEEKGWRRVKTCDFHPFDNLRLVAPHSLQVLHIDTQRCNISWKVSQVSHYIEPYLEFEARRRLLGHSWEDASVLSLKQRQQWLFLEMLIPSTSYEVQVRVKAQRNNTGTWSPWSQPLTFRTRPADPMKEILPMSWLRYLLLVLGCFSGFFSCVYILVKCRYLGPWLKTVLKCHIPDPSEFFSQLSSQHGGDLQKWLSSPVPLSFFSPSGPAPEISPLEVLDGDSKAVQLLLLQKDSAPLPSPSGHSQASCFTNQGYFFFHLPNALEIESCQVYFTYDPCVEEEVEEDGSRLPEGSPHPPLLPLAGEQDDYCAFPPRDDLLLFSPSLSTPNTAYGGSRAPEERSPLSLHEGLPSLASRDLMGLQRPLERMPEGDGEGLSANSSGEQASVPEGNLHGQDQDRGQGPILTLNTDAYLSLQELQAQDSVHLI
T1 sequence (looked up) 3: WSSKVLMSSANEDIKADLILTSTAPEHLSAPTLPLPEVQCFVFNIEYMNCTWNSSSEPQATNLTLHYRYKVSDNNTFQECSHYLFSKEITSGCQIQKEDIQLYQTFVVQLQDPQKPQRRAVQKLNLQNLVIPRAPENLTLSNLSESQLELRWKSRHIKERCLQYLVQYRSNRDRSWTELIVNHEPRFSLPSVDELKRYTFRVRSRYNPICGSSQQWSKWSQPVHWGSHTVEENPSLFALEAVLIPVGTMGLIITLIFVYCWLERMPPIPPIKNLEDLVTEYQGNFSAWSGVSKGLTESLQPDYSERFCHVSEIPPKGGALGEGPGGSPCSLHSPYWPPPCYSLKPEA

[2] = molecular target: T2, human IL-2Rβγc (on DERL-7 cells, U2OS IL2RB/IL2RG cells, CD25 knockout Kit225-STAT5 cells, primary CD8+ CTLs) (human, UniProt P14784 27-551; P31785 23-369); test: cell-based or functional assay
T2 sequence (looked up) 1: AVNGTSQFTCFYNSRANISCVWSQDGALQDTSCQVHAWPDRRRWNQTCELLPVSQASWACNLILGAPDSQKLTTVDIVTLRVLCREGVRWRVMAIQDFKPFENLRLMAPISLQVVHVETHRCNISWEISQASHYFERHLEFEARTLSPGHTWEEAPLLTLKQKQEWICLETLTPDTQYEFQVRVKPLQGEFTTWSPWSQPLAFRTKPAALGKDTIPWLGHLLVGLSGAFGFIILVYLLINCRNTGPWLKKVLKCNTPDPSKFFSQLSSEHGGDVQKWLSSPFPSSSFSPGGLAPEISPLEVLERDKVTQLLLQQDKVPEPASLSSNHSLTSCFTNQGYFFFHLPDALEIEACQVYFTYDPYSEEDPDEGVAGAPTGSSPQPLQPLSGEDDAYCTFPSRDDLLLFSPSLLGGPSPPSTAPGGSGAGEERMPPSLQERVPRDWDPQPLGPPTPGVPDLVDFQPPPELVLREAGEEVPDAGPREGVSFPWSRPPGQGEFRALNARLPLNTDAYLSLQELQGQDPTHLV
T2 sequence (looked up) 2: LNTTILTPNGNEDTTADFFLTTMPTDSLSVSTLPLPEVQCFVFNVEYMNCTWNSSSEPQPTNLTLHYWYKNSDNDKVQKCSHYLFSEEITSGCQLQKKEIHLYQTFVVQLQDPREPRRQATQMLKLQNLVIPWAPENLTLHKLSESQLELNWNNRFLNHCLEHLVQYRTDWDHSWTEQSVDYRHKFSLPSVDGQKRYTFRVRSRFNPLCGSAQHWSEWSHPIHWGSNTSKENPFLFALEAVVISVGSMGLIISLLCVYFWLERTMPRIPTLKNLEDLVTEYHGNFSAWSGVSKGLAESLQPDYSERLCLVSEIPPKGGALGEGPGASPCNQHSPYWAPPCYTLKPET

Human IL-2Rβ (Table 7B) = molecular target: T3, Human IL-2Rβ (Table 7B) (human, UniProt P14784 27-239, limits assumed); test: SPR (Biacore T200)
T3 sequence (looked up): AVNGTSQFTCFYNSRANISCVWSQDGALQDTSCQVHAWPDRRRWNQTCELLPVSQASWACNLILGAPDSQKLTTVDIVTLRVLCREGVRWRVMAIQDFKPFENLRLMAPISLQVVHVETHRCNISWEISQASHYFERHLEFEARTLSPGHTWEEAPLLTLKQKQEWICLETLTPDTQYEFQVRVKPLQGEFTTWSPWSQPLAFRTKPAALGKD

[3] = molecular target: T1, mouse IL-2Rαβγc (on CTLL2-STAT5 …); test: cell-based or functional assay; remark: listed apart in the source
[4] = molecular target: T4, human IL-2Rαβγc (on Kit225-STAT5 reporter cells, NK-92 cells, primary Treg cells) (human, UniProt P01589 22-272; P14784 27-551; P31785 23-369); test: cell-based or functional assay
T4 sequence (looked up) 1: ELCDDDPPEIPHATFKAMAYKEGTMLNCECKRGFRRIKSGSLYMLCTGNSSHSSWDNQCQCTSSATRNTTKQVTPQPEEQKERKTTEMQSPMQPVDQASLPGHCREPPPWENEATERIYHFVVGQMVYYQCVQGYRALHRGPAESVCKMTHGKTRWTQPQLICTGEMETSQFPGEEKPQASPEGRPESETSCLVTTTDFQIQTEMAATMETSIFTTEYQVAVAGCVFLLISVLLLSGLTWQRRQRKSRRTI
T4 sequence (looked up) 2: T2 sequence (looked up) 1
T4 sequence (looked up) 3: T2 sequence (looked up) 2

[5] = molecular target: T2, human IL-2Rβγc (on DERL-7 cells, U2OS …); test: cell-based or functional assay; remark: listed apart in the source
[6] = molecular target: T2, human IL-2Rβγc (on DERL-7 cells, U2OS …); test: cell-based or functional assay; remark: listed apart in the source

B1: Ald-6HIS_E61S/P64A/Y106A (ligand)
chain: PTSSSTKKTQLQLEHLLLDLQMILNGINNYKNPKLTRMLTFKFYMPKKATELKHLQCLEESLKALEEVLNLAQSKNFHLRPRDLISNINVIVLELKGSETTFMCEAADETATIVEFLNRWITFSQSIISTLTGGSHHHHHH
CTLL2-STAT5 EC50 [1]: > 7 nM | U2OS-IL2Rbg EC50 [2]: 5.77 nM

B2: Ald-6HIS_R37A/T40D/E60T (ligand)
chain: B1 chain with R37A, T40D, E60T, S61E, A64P, A106Y
Kd (Human IL-2Rβ (Table 7B)): 1900 nM | koff (Human IL-2Rβ (Table 7B)): 0.42 s⁻¹ | kon (Human IL-2Rβ (Table 7B)): 220000 M⁻¹ s⁻¹ | STAT5-CTLL2 EC50 [3]: 6.22 nM | STAT5-CTLL2 EC50 Fold Change [3]: 689 fold | NK-92 EC50 Fold Change [4]: 11 fold | NK-92 cell assay EC50 [4]: 0.076 nM | U2OS B/BG EC50 Fold Change [5]: 2.53 fold | U2OS B/BG bridging cell assay EC50 [5]: 0.403 nM | DERL7 EC50 Fold Change [6]: 2.41 fold | DERL7 cell assay EC50 [6]: 0.043 nM

B5: Ald-6HIS_R37A/E60T (ligand)
chain: B1 chain with R37A, E60T, S61E, A64P, A106Y
Kd (Human IL-2Rβ (Table 7B)): 1100 nM | koff (Human IL-2Rβ (Table 7B)): 0.082 s⁻¹ | kon (Human IL-2Rβ (Table 7B)): 75000 M⁻¹ s⁻¹ | STAT5-CTLL2 EC50 [3]: 0.129 nM | STAT5-CTLL2 EC50 Fold Change [3]: 14.3 fold | NK-92 EC50 Fold Change [4]: 4.46 fold | NK-92 cell assay EC50 [4]: 0.031 nM | U2OS B/BG EC50 Fold Change [5]: 3.28 fold | U2OS B/BG bridging cell assay EC50 [5]: 0.522 nM | DERL7 EC50 Fold Change [6]: 2.14 fold | DERL7 cell assay EC50 [6]: 0.038 nM

Now from value to binder:

Kd (Human IL-2Rβ (Table 7B)): 1000 nM | koff (Human IL-2Rβ (Table 7B)): 0.3 s⁻¹ | kon (Human IL-2Rβ (Table 7B)): 300000 M⁻¹ s⁻¹ | STAT5-CTLL2 EC50 [3]: 11 nM | STAT5-CTLL2 EC50 Fold Change [3]: 1220 fold | NK-92 EC50 Fold Change [4]: 7.31 fold | NK-92 cell assay EC50 [4]: 0.051 nM | U2OS B/BG EC50 Fold Change [5]: 2.32 fold | U2OS B/BG bridging cell assay EC50 [5]: 0.37 nM | DERL7 EC50 Fold Change [6]: 1.18 fold | DERL7 cell assay EC50 [6]: 0.021 nM
B3: Ald-6HIS_R37A/F41K (ligand)
chain: B1 chain with R37A, F41K, S61E, A64P, A106Y

Kd (Human IL-2Rβ (Table 7B)): 980 nM | koff (Human IL-2Rβ (Table 7B)): 0.32 s⁻¹ | kon (Human IL-2Rβ (Table 7B)): 330000 M⁻¹ s⁻¹ | STAT5-CTLL2 EC50 [3]: 6.31 nM | STAT5-CTLL2 EC50 Fold Change [3]: 699 fold | NK-92 EC50 Fold Change [4]: 2.81 fold | NK-92 cell assay EC50 [4]: 0.02 nM | U2OS B/BG EC50 Fold Change [5]: 1.84 fold | U2OS B/BG bridging cell assay EC50 [5]: 0.294 nM | DERL7 EC50 Fold Change [6]: 0.65 fold | DERL7 cell assay EC50 [6]: 0.012 nM
B4: Ald-6HIS_T40D/F41K (ligand)
chain: B1 chain with T40D, F41K, S61E, A64P, A106Y
